Results: patent publication US20110014209A1

Tests used:
[1] = target: CD81 MBP-LEL (maltose-binding protein fused to the CD81 large extracellular loop, residues 113-201) (human) (UniProt P60033); assay: CD81 MBP-LEL solid-phase assay, virion-incorporated E2
[2] = target: HCV E1 glycoprotein (H77c), expressed from the pE1E2 vectors (hepatitis C virus H77c) (UniProt P27958); assay: cell-based or functional assay
[3] = target: full-length human CD81 expressed on transfected CHO-K1 cells (human) (UniProt P60033); assay: binding to CD81-transfected CHO-K1 cells, 125I-9E10 detection
Chain of full-length human CD81 expressed on transfected CHO-K1 cells (human) (P60033 whole entry): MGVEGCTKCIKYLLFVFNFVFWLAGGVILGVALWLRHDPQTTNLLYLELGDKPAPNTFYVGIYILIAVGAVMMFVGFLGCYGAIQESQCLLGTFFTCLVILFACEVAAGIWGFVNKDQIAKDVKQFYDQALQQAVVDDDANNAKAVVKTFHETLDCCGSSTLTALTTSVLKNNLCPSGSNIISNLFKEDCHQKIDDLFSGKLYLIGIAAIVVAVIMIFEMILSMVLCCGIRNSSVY

Chain of CD81 MBP-LEL (maltose-binding protein fused to the CD81 large extracellular loop, residues 113-201) (human) (P60033 113-201 limits assumed): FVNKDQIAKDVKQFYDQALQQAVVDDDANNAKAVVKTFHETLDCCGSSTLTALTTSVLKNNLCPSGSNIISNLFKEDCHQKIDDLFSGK

## E2 glycoprotein expressed from pE1E2 Δ1 (HVR1 deletion, residues 387-408 replaced by GSSG) (from UniProt P27958 409-746)
[1]
  fold increase in the overall binding curve compared to wild-type: 4 fold

## E2 glycoprotein expressed from pE1E2 Δ3 link (igVR deletion with extended linker) (from UniProt P27958 384-571; P27958 579-746)
[2]
  E1E2-mediated entry of pseudotyped HIV-1 particles into Huh7 cells (luciferase): 8 fold

## E2 Δ12-myc (from UniProt P27958 384-386; P27958 409-459; P27958 486-661)
[3]
  percent reduction in CD81 binding compared to E2 Δ23-myc: 50%
